Data as given in patent US7211420B1, “Process for oxidizing terpenes” (ISIS Innovation Limited, priority 1998, dated 2007).

What was measured:
Type in all cases: biochemical
[1] = Oxidation of valencene by P450cam mutants, product proportions by GC; conditions: substrate Valencene
Method: (§1) For simple screening the substrate can be added to culture and the incubation continued. However, due to impurities from the culture media the cells were generally washed twice with 0.5 vol. of buffer P, (KH2PO4 6.4 g, K2HPO4.3H2O 25.8 g, H2O to 4 liters, pH 7.4) and resuspended in 0.25 vol. oxygen saturated buffer P containing 24 mM glucose. Substrate was added to 1 mM and the incubation continued at 30° C. The reaction was allowed to run for 24 hours with periodic additions of substrate and glucose.
(§2) The reaction was analysed by extracting 1 ml of the incubation mixture with 250 μl of ethylacetate. After centrifuging in a microcentrifuge at 13,000 g for 2 minutes, 2 μl of the organic extract was injected onto a 0.25 mm×30 m DB-1 gas chromatography column in a Fisons GC 8000 series gas chromatograph. The samples were carried through the column using helium carrier gas and the compounds present were detected using a flame ionisation detector.

[2] = Oxidation of α-pinene by P450cam mutants, product proportions by GC; conditions: substrate α-Pinene
Method: as §1, §2

[3] = Oxidation of L-limonene by P450cam mutants, product proportions by GC; conditions: substrate L-Limonene
Method: as §1, §2

[4] = single oxygen insertion products only, 30 m DB-1 GC column

B1: Wild-type: Wild-type P450cam haem monooxygenase from Pseudomonas putida, sequence in Table 7 (protein, UniProt P00183 2-415, looked up)
Camphor 5-monooxygenase: TTETIQSNANLAPLPPHVPEHLVFDFDMYNPSNLSAGVQEAWAVLQESNVPDLVWTRCNGGHWIATRGQLIREAYEDYRHFSSECPFIPREAGEAYDFIPTSMDPPEQRQFRALANQVVGMPVVDKLENRIQELACSLIESLRPQGQCNFTEDYAEPFPIRIFMLLAGLPEEDIPHLKYLTDQMTRPDGSMTFAEAKEALYDYLIPIIEQRRQKPGTDAISIVANGQVNGRPITSDEAKRMCGLLLVGGLDTVVNFLSFSMEFLAKSPEHRQELIERPERIPAACEELLRRFSLVADGRILTSDYEFHGVQLKKGDQILLPQMLSGLDERENACPMHVDFSRQKVSHTTFGHGSHLCLGQHLARREIIVTLKEWLTRIPDFSIAPGAQIQHKSGIVSGVQALPLVWDPATTKAV
Comments [1]: Many small peaks
Approximate proportion of product Pinene oxide [2]: 10%
Approximate proportion of product Verbenol [2]: 30%
Approximate proportion of product Verbenone [2]: 10%
Remaining other products (Comments) [2]: Remaining 50% other products
Comments [3]: Very small quantities
Approximate proportion of Product at 6.10–6.20 min [3, 4]: 30%
Approximate proportion of product Isopiperitenol (6.60–6.70 min) [3, 4]: 70%
